According to publication PMC8028046 (2021):

Target: amyloid-beta fibrils (Homo sapiens, UniProt P05067)
Assay: SPR

Sequence of amyloid-beta fibrils (P05067 672-713): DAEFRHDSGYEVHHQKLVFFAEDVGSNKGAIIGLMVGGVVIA

B1: proSP-C BRICHOS BRICHOS (protein)
chain: TATFSIGSTGLVVYDYQQLLIAYKPAPGTCCYIMKIAPESIPSLEALTRKVHNFQMECSLQAKPAVPTSKLGQAEGRDAGSAPSGGDPAFLGMAVSTLCGEVPLYYI
Kd: ~130 nM
